Source: EP4692116A1 (Kexing Biopharm Co., Ltd., dated 2026)

T1: human GDF15 protein (Novoprotein, Cat# DRA26) (human, UniProt Q99988 197-308)
T1 sequence (looked up): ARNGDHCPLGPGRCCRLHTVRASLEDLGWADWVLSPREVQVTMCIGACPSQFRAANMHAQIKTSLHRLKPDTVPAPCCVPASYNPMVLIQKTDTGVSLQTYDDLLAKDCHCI

T2: GDF15-Biotin protein (KACTUS, Cat# GDF-HM215B) (human, UniProt Q99988 197-308, limits assumed, biotin (site not stated))
T2 construct: Bought biotinylated protein; also called human GDF15
T2 sequence (looked up): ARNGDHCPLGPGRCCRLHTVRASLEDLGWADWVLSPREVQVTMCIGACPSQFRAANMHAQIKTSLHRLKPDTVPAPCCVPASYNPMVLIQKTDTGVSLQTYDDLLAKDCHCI

T3: Human GDNF protein (Novoprotein, Cat# C226) (human, UniProt P39905 78-211)
T3 construct: Bought protein
T3 sequence (looked up): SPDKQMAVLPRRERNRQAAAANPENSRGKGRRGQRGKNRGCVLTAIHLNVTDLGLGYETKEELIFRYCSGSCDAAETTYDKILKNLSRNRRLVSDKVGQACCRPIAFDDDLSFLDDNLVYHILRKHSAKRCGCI


What was measured:
[1] = target: human GDF15 protein (Novoprotein, Cat# DRA26) (human) (UniProt Q99988); assay: ELISA, human GDF15 coated, anti-human Fc-HRP detection
[2] = target: human GDF15 protein (Novoprotein, Cat# DRA26) (human) (UniProt Q99988); assay: cell-based or functional assay
[3] = target: GDF15-Biotin protein (KACTUS, Cat# GDF-HM215B) (human) (UniProt Q99988); assay: blocking ELISA: GFRAL coated, 20 ng/mL GDF15-Biotin with titrated antibody, Streptavidin-HRP
[4] = target: Human GDNF protein (Novoprotein, Cat# C226) (human) (UniProt P39905); assay: ELISA, GDNF coated, antibody from 2,000 nM, anti-human Fc-HRP detection
[5] = target: ARTN protein (Novoprotein, Cat# CR34) (human) (UniProt Q5T4W7); assay: ELISA, ARTN coated, antibody from 2,000 nM, anti-human Fc-HRP detection
[6] = target: T1, human GDF15 protein (Novoprotein, Cat# …); assay: cell-based or functional assay
[7] = target: T1, human GDF15 protein (Novoprotein, Cat# …); assay: ELISA, human GDF15 coated, anti-human Fc-HRP detection
[8] = target: T2, GDF15-Biotin protein (KACTUS, Cat# …); assay: blocking ELISA: GFRAL coated, 20 ng/mL GDF15-Biotin with titrated antibody, Streptavidin-HRP
[9] = target: T3, Human GDNF protein (Novoprotein, Cat# …); assay: ELISA, GDNF coated, antibody from 2,000 nM

Chain of ARTN protein (Novoprotein, Cat# CR34) (human) (Q5T4W7 108-220 limits assumed): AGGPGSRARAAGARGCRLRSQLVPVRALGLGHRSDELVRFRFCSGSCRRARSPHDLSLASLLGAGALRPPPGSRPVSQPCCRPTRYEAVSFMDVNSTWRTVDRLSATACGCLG

EC50 [1] [pM]	IC50 of GDF15 reporter gene activity [2] [pM]	IC50 [3] [pM]	EC50 [4] [pM]	EC50 [5] [pM]	IC50 of GDF15 reporter gene activity [6] [pM]	EC50 [7] [pM]	IC50 [8] [pM]	binding result [9]	Molecule
93.3	1990	1500	–	–	–	–	–	–	CTL002 (CatalYm humanized GDF15 monoclonal antibody, positive control)
97.4	47.5	110	278000	97100	–	–	–	–	PF-06946860 (Pfizer GDF15 monoclonal antibody, positive control)
–	–	–	–	–	70.1	98.8	160	–	LN14 GDF15 heavy chain single-domain antibody (full-length, VHH joined to human IgG1 Fc) (antibody, V domains shown, expressed in CHO cells; No light chain; also called LN14 full-length) VH: QVQLVESGGGLVQPGGSLRLACAASGFTLDAYAVGWFRQAPGKNPEGVSCISSSDGSAYYADSVKGRFTISRDNAKNTVYLQMNSLKPGDTAVYYCAADLSCPVQIATFHSRGQGTQVTVSS
–	–	–	–	–	73.5	89.2	171	binds	LN25 GDF15 heavy chain single-domain antibody (full-length, VHH joined to human IgG1 Fc) (antibody, V domains shown, expressed in CHO cells; No light chain; also called LN25 full-length) VH: QLQLVESGGGEVQPGGSLRLSCAASGATLDDLSIGWFRQAPGKGLEGVSCISSSDGSTYYADSVKGRFTISRDNAKNTAYLQMNSLRPEDTAVYYCAADREDCPVQPWGIVAGTSRGQGTQVTVSS
–	–	–	–	–	70.5	83.2	175	binds	LN06 GDF15 heavy chain single-domain antibody (full-length, VHH joined to human IgG1 Fc) (antibody, V domains shown, expressed in CHO cells; No light chain; also called LN06 full-length) VH: QLQLVESGGGLVQPGGSLRLSCVASGFTLDDYAIGWFRQAPGKGLEGVSCISSSDESTYYADSVKGRFTISRDNAKNTAYLQMNSLKPEDTAIYYCAADTECPVQVTSMAWGQGTQVTVSS
–	–	–	–	–	71.9	85.8	147	binds	LN13 GDF15 heavy chain single-domain antibody (full-length, VHH joined to human IgG1 Fc) (antibody, V domains shown, expressed in CHO cells; No light chain; also called LN13 full-length) VH: QLQLVESGGGLVQPGGSLRLSCAASGFTLDYYAIGWFRQAPGKGPEAVSCISSSDGSTYYSDSVKGRFTISRDNAKNTVYLQMNSLKPEDTAVYYCAAGEYGSDCPVQVGSWGQGTQVTVSS
–	–	–	–	–	77.8	91.2	221	binds	LN05 GDF15 heavy chain single-domain antibody (full-length, VHH joined to human IgG1 Fc) (antibody, V domains shown, expressed in CHO cells, Protein A purified; No light chain; also called LN05 full-length) VH: QVQLVESGGGLVQPGGSLRLSCAASGFTLDYYAIGWFRQAPGKGREGVSCISSNDGSTYYSDSVKGRFTTSRDNAKNTVYLQMNSLKPEDTAVYYCAADLTPCPVNPSVDHYWGQGTQVTVSS
–	–	–	–	–	–	382	–	–	LN11 GDF15 heavy chain single-domain antibody (VHH joined to human IgG1 Fc) (antibody, V domains shown) VH: QVQLVESGGGLVQPGGSLRLSCAASGFTIRTYTMSWYRQAPGKERALVAYITPGGPTYHIDSVKGRFTISRNNAENTVYLQMNSLKPEDTAVYYCGNGFGSWGQGTQVTVSS
